# Results reported in paper PMC10967716.
# Tests used:
# Assay in all cases: SEC
# [1] = target: α-Methylacyl-CoA racemase from Mycobacterium tuberculosis, D156A mutant (M. tuberculosis) (UniProt O06543)
# [2] = target: α-Methylacyl-CoA racemase from Mycobacterium tuberculosis, E241A mutant (M. tuberculosis) (UniProt O06543)
# [3] = target: α-Methylacyl-CoA racemase from Mycobacterium tuberculosis, H126A mutant (M. tuberculosis) (UniProt O06543)
substance,measurement,setting,value
"α-Methylacyl-CoA racemase from Mycobacterium tuberculosis, D156A mutant (from UniProt O06543 1-360) (enzyme)",stoichiometry N,[1],2
"α-Methylacyl-CoA racemase from Mycobacterium tuberculosis, E241A mutant (from UniProt O06543 1-360) (enzyme)",stoichiometry N,[2],2
"α-Methylacyl-CoA racemase from Mycobacterium tuberculosis, H126A mutant (from UniProt O06543 1-360) (enzyme)",stoichiometry N,[3],2
